“And” between values parts separate entries of the source, which are not always exact repeats. Equal values may be shown once.
What was measured:
[1] = target: intercellular adhesion molecule-1 (ICAM-1) of epithelial cells (human (endogenous in primary tonsil, cervical and foreskin keratinocytes)) (UniProt P05362)
[2] = target: intercellular adhesion molecule-1 (ICAM-1) of epithelial cells (human (endogenous in primary tonsil, cervical and foreskin keratinocytes)) (UniProt P05362); remark: listed apart in the source

Chain of UniProt P05362 (P05362 28-532): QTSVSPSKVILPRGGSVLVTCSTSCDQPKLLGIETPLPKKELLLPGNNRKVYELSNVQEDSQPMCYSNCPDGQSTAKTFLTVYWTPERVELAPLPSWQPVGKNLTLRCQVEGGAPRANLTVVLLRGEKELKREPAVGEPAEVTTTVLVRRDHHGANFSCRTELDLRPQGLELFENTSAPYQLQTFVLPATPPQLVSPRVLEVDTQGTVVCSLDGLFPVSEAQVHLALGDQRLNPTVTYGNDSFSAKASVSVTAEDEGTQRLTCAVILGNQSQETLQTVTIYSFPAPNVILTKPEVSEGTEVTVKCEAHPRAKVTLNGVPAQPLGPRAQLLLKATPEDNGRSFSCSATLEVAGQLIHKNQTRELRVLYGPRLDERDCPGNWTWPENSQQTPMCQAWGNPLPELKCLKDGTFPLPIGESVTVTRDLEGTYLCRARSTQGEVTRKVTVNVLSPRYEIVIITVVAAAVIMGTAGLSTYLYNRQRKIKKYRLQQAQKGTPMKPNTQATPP

lymphocyte receptor function-associated antigen-1 (LFA-1) (from UniProt P20701 26-1170; P05107 23-769) (complex)
reduction of HIV-1 SF33 spread from AP and BL surfaces of polarized tonsil epithelial cells to activated PBMC, in the presence of antibodies against ICAM-1 and LFA-1 (ELISA p24 of PBMC after 7 days) [1]: 65 to 70%
reduction of HIV-1 SF33 spread from AP and BL membranes of polarized cervical and foreskin epithelial cells to activated PBMC, in the presence of antibodies to LFA-1 and ICAM-1 (ELISA p24) [2]: 40% and 50%
reduction of spread of R5-tropic HIV-1 SF170 from polarized cervical and foreskin epithelial cells to CD4+ T lymphocytes, in the presence of antibodies to LFA-1 and ICAM-1 (ELISA p24) [2]: 70%
reduction of spread of X4-tropic HIV-1 92UG029 from polarized cervical and foreskin epithelial cells to CD4+ T lymphocytes, in the presence of antibodies to LFA-1 and ICAM-1 (ELISA p24) [2]: 50%

From article PMC5344537
